# PMC2995052 (Nucleic Acids Research, 2010)
# B1: P2 C repressor (immunity repressor of temperate Escherichia coli phage P2) (natural protein, bacteriophage P2, UniProt P04132 1-99, looked up)
# chain: MSNTISEKIVLMRKSEYLSRQQLADLTGVPYGTLSYYESGRSTPPTDVMMNILQTPQFTKYTLWFMTNQIAPEFGQIAPALAHFGQNETTSPHSGQKTG
# Target: the molecule itself
# Assay: SEC
protein,measurement,value
B1,stoichiometry N,2
